Each binder was assayed against acetylcholine receptor (assay: SPR, AchR on chip, peptide 10 uM).
In the case of RRFTK [5mer-326], the Binding affinity (RU) is reported as 68 RU.
RVLCR [5mer-327] showed a Binding affinity (RU) of 86 RU.
RQQQR [5mer-26] was tested, and the Binding affinity (RU) was 65 RU.
With KGYLR [5mer-27] the Binding affinity (RU) was 67 RU.
RLLSR [5mer-28] gave a Binding affinity (RU) of 74 RU.

The binders below were run against acetylcholine receptor (assay: SPR, receptor immobilized on CM5 chip, peptide 10 uM).
For KGLYKR [6mer-2-452], the Binding affinity (RU) was 146 RU.
In the case of RLVQKR [6mer-2-442], the Binding affinity (RU) is reported as 139 RU.
Binder KRYSRR [6mer-2-402] has a Binding affinity (RU) of 145 RU.
Work on KLILKR [6mer-2-431] yielded a Binding affinity (RU) of 135 RU.
Binder KLLTRR [6mer-2-463] has a Binding affinity (RU) of 124 RU.
KRFLKK [6mer-2-412] was tested, and the Binding affinity (RU) was 139 RU.
KRESHR [6mer-1-927] was tested, and the Binding affinity (RU) was 37 RU.
Work on RQLQKK [6mer-2-446] yielded a Binding affinity (RU) of 153 RU.
With RWVYKR [6mer-2-435] the Binding affinity (RU) was 154 RU.
RSFRRR [6mer-2-448] was tested, and the Binding affinity (RU) was 128 RU.
In the case of RLILKR [6mer-2-413], the Binding affinity (RU) is reported as 136 RU.
Binder RSRQKK [6mer-2-411] has a Binding affinity (RU) of 121 RU.
Binder RRQYRK [6mer-2-420] has a Binding affinity (RU) of 128 RU.
In the case of RWVYKK [6mer-2-417], the Binding affinity (RU) is reported as 151 RU.
RGRCKK [6mer-2-451] gave a Binding affinity (RU) of 148 RU.
Work on KQVSKR [6mer-2-407] yielded a Binding affinity (RU) of 122 RU.
With RVIRRK [6mer-2-434] the Binding affinity (RU) was 154 RU.
Work on KLFSRK [6mer-2-459] yielded a Binding affinity (RU) of 139 RU.
Work on KVLYKR [6mer-2-436] yielded a Binding affinity (RU) of 148 RU.
RWFRRR [6mer-2-430] gave a Binding affinity (RU) of 139 RU.
Work on KSQRKR [6mer-2-441] yielded a Binding affinity (RU) of 139 RU.
Binder RRVYKR [6mer-2-457] has a Binding affinity (RU) of 146 RU.
Work on RLQYRK [6mer-2-423] yielded a Binding affinity (RU) of 154 RU.
In the case of KGQRRK [6mer-2-426], the Binding affinity (RU) is reported as 141 RU.
For RQYCRR [6mer-2-443], the Binding affinity (RU) was 122 RU.
In the case of RQRLKK [6mer-2-444], the Binding affinity (RU) is reported as 141 RU.
KGVSKR [6mer-2-465] gave a Binding affinity (RU) of 122 RU.
For RVLSKR [6mer-2-404], the Binding affinity (RU) was 121 RU.
With KGYRKK [6mer-2-405] the Binding affinity (RU) was 137 RU.
Binder RSVQKK [6mer-2-454] has a Binding affinity (RU) of 133 RU.
KGRCKK [6mer-2-415] showed a Binding affinity (RU) of 149 RU.
Binder KQYSRR [6mer-2-467] has a Binding affinity (RU) of 142 RU.
KRESDR [6mer-1-926] was tested, and the Binding affinity (RU) was 40 RU.
With RWRQRK [6mer-2-429] the Binding affinity (RU) was 123 RU.
With RVQYKK [6mer-2-418] the Binding affinity (RU) was 121 RU.
KKESNK [6mer-1-930] was tested, and the Binding affinity (RU) was 43 RU.
Work on KGVLRK [6mer-2-403] yielded a Binding affinity (RU) of 123 RU.
KWFSKR [6mer-2-439] was tested, and the Binding affinity (RU) was 153 RU.
Binder RLVCKR [6mer-2-445] has a Binding affinity (RU) of 145 RU.
For KRYCPK [6mer-1-928], the Binding affinity (RU) was 30 RU.
RRCDHK [6mer-1-929] showed a Binding affinity (RU) of 25 RU.
Binder RLQRRR [6mer-2-427] has a Binding affinity (RU) of 147 RU.
In the case of KKNWPR [6mer-1-931], the Binding affinity (RU) is reported as 35 RU.
Work on RWIQKR [6mer-2-433] yielded a Binding affinity (RU) of 139 RU.
RWRLRR [6mer-2-416] gave a Binding affinity (RU) of 131 RU.
RVYTKK [6mer-2-447] showed a Binding affinity (RU) of 139 RU.
KQVCKK [6mer-2-437] was tested, and the Binding affinity (RU) was 121 RU.
Work on RLLCRK [6mer-2-438] yielded a Binding affinity (RU) of 131 RU.
For RSRYKK [6mer-2-419], the Binding affinity (RU) was 154 RU.
Binder KVFLKK [6mer-2-428] has a Binding affinity (RU) of 142 RU.
KVICRK [6mer-2-421] was tested, and the Binding affinity (RU) was 124 RU.
Work on RSQCRK [6mer-2-460] yielded a Binding affinity (RU) of 139 RU.
With KRRRKR [6mer-2-409] the Binding affinity (RU) was 139 RU.
KVVRKR [6mer-2-432] gave a Binding affinity (RU) of 148 RU.
KKAMHR [6mer-1-925] gave a Binding affinity (RU) of 42 RU.
RQRYRK [6mer-2-450] gave a Binding affinity (RU) of 123 RU.
In the case of KGIYRR [6mer-2-406], the Binding affinity (RU) is reported as 139 RU.
With KSVCRR [6mer-2-461] the Binding affinity (RU) was 149 RU.
RLLTRR [6mer-2-466] showed a Binding affinity (RU) of 142 RU.
Work on KSFRKK [6mer-2-464] yielded a Binding affinity (RU) of 135 RU.
For RLYCKK [6mer-2-424], the Binding affinity (RU) was 139 RU.
For KSVTKR [6mer-2-456], the Binding affinity (RU) was 147 RU.
For KRFRKK [6mer-2-410], the Binding affinity (RU) was 153 RU.
RLVRKK [6mer-2-453] showed a Binding affinity (RU) of 141 RU.
KLQTKK [6mer-2-425] was tested, and the Binding affinity (RU) was 145 RU.
With KWRQKK [6mer-2-414] the Binding affinity (RU) was 135 RU.
For RGRCRR [6mer-2-449], the Binding affinity (RU) was 154 RU.
In the case of KQLSKK [6mer-2-440], the Binding affinity (RU) is reported as 153 RU.
RRFQRR [6mer-2-458] was tested, and the Binding affinity (RU) was 122 RU.
For KQICKR [6mer-2-462], the Binding affinity (RU) was 145 RU.
Work on RLITRR [6mer-2-422] yielded a Binding affinity (RU) of 154 RU.
In the case of RWYSKR [6mer-2-455], the Binding affinity (RU) is reported as 135 RU.
In the case of KQIYRR [6mer-2-408], the Binding affinity (RU) is reported as 139 RU.

— patent US20250011363A1, “OPTIMIZED SHORTENED PEPTIDE THAT BINDS TO ACETYLCHOLINE RECEPTOR, AND USE THEREOF” (SKINMED CO., LTD., priority 2021, published 2025)
